The values below come from US20160137730A1 (Novartis, published 2016).

In test [1] the target is T1, recombinant human E-cadherin ECD (human, UniProt P12830 155-709).
T1 construct: extracellular domain; also called E-cadherin (CDH1)
T1 sequence (looked up): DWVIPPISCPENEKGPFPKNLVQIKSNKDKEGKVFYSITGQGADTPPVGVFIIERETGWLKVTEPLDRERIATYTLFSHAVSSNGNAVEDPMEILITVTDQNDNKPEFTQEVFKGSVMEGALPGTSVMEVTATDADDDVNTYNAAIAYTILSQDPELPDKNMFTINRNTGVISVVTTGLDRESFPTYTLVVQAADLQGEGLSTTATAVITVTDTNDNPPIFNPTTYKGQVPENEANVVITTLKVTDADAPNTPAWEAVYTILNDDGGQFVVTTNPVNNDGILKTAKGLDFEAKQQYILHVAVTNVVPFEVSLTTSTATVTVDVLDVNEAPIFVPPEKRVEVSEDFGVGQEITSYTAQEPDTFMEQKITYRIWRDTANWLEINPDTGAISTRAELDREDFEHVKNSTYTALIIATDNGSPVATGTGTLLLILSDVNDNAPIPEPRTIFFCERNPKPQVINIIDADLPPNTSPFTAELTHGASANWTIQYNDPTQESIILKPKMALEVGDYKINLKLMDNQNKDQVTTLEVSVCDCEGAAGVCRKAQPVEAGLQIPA
Briefly: ELISA, ECD coated on plate, Fab-containing E. coli lysate. On the procedure:
(§1) To assess specificity of binding to P-cadherin vs E-cadherin and N-cadherin, Maxisorp 384-well plates were o/n at 4° C. with recombinant human E-cadherin or N-cadherin ECD and Fab fragments were assayed using an enzyme-linked immunosorbent assay (ELISA) format. After washing, plates were blocked for 2 h with 5% skim milk in 1×PBST. Fab-containing E. coli lysates were added and binding allowed for 1 h at room temperature (RT). To detect bound Fab fragments, plates were washed 5× with TBST and AP-anti human IgG F(ab′)₂ was added in a 1/2500 dilution. After 1 h at RT, plates were washed 5× with TBST and AttoPhos substrate was added according to the manufacturers specifications. Plates were read in an ELISA reader 5 minutes after adding the substrate.

For test [2], the target named is T2, recombinant human N-cadherin ECD (human, UniProt P19022 160-724).
T2 construct: extracellular domain; also called N-cadherin (CDH2)
T2 sequence (looked up): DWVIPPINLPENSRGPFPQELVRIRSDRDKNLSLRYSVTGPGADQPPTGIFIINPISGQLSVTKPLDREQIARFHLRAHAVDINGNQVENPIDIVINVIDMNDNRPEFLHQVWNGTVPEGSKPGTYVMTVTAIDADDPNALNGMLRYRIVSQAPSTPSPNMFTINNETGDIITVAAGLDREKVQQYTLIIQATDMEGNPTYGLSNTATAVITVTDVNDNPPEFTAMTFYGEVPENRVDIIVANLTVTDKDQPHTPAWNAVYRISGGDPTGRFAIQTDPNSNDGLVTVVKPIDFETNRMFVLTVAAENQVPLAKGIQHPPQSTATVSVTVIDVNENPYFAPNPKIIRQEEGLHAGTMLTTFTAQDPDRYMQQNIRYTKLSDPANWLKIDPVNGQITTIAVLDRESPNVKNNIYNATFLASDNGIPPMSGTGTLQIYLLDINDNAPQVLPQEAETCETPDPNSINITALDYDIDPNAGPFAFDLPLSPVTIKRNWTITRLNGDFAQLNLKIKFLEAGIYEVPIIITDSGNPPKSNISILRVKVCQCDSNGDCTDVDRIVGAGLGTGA
Described as above. On the procedure: as §1

B1: NOV169N31Q Fab (Fab, V domains shown)
VH: QVQLQQSGPGLVKPSQTLSLTCAISGDSVSSQSAAWNWIRQSPSRGLEWLGRIYYRSKWYNDYALSVKSRITINPDTSKNQFSLQLNSVTPEDTAVYYCARGEGYGREGFAIWGQGTLVTVSS
VL: DIQMTQSPSSLSASVGDRVTITCRASQTISNTLAWYQQKPGKAPKLLIYAASNLQSGVPSRFSGSGSGTDFTLTISSLQPEDFATYYCQQYLSWFTFGQGTKVEIKR
notes: Expressed in E. coli; also called Fab fragment of NOV169N31Q
Turning to B1, the binding result in test [1] and in test [2] was “no binding” throughout.
